# In patent US20130315910A1:
# Legend:
# Assay in all cases: SPR
# [1] = biological target: cynoFcγRIIb (Macaca fascicularis)
# mFcγRIIb (Mus musculus) = mFcγRIIb (Mus musculus) (UniProt P08101)
# mFcγRIV = biological target: T1, mFcγRIV
# T1 sequence: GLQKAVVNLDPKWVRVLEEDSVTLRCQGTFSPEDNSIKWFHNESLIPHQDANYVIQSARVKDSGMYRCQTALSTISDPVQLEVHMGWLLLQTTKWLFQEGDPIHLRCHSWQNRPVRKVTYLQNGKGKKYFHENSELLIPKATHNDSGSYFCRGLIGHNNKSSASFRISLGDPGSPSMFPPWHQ
# [2] = biological target: human FcγRI receptor protein (R&D Systems) (human) (UniProt P12314)
# human FcγRI receptor protein (R&D Systems) (human), sequence (P12314 16-288 limits assumed): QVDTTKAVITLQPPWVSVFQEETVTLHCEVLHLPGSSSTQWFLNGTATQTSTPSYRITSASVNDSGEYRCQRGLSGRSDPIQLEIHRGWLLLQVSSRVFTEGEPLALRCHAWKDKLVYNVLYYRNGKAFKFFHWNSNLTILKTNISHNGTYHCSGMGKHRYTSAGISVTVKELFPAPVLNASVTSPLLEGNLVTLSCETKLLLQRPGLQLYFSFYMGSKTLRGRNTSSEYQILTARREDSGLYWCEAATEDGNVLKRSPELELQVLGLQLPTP
# [3] = biological target: human FcγRIIa (131H), His- and GST-tagged (human) (UniProt P12318)
# human FcγRIIa (131H), His- and GST-tagged (human), sequence (P12318 34-217): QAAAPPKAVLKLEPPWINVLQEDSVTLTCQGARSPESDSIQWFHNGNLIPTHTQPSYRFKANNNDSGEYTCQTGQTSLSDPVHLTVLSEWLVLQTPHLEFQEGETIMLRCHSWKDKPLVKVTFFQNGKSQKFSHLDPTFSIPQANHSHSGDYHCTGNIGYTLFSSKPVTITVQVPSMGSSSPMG
# [4] = biological target: human FcγRIIa (131R), His- and GST-tagged (human) (UniProt P12318)
# human FcγRIIa (131R), His- and GST-tagged (human), sequence (P12318 34-217 H167R): as the sequence (P12318 34-217) above, with H134R counted along it
# [5] = biological target: human FcγRIIb receptor protein (R&D Systems) (human) (UniProt P31994)
# human FcγRIIb receptor protein (R&D Systems) (human), sequence (P31994 46-217 limits assumed): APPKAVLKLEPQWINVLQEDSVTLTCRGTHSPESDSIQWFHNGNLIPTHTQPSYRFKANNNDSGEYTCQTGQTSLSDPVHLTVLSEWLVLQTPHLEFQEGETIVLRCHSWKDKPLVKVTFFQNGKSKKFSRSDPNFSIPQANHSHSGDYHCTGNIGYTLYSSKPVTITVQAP
# mFcγRIIb (Mus musculus), sequence (P08101 30-210): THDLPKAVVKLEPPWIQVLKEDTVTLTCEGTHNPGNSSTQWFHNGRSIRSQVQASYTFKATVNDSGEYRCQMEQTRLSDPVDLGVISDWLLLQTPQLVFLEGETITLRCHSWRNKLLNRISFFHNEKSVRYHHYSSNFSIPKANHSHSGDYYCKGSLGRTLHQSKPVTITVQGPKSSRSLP
substance,measurement,setting,value
S267D/A327D (antibody),Fold vs WT IgG1 (off-rate),[1],0 fold
same,Fold vs WT IgG1 (off-rate),mFcγRIIb (Mus musculus),0 fold
S267E/L328Y (antibody),Fold vs WT IgG1 (Kd),mFcγRIV,0.026 fold
V266M (antibody),Fold vs WT IgG1 (off-rate),mFcγRIV,1.23 fold
anti-CD19 antibody IgG1/2 ELLGG S267E/L328F,Fold vs WT IgG1,[2],2.35 fold
same,Kd,[2],0.14 nM
same,Fold vs WT IgG1,[3],0.993 fold
same,Kd,[3],651 nM
same,Fold vs WT IgG1,[4],269 fold
same,Kd,[4],3.19 nM
same,Fold vs WT IgG1,[5],221 fold
same,Kd,[5],6.63 nM
